Data from paper PMC6521718 (Molecular cell, 2018).
Substitutions are numbered along the chain they refer to. Read-outs that look alike come from different tables or passages of the source.

B1: 80-bp dsDNA target, GG PAM (dsDNA)
DNA 1: GCTGTACGTCACTATCGAAGCAATACAGGTAGACGCGGACATCAAGCCCGCCGTGAAGGTGCAGCTTCTCTACAGAGTGC
DNA 2: GCACTCTGTAGAGAAGCTGCACCTTCACGGCGGGCTTGATGTCCGCGTCTACCTGTATTGCTTCGATAGTGACGTACAGC
B2: 80-bp target, GG PAM, bubble +1 to +10 (dsDNA)
DNA 1: B1 DNA 1
DNA 2: B1 DNA 2 with T24A, T25A, C26G, A27T, C28G, G29C, G30C, C31G, G32C, G33C
B3: 80-bp target, TT PAM, bubble +1 to +10 (dsDNA)
DNA 1: B1 DNA 1 with G58T, G59T
DNA 2: GCACTCTGTAGAGAAGCTGCAAAAAGTGCCGCCGCTTGATGTCCGCGTCTACCTGTATTGCTTCGATAGTGACGTACAGC
B4: 80-bp target, CC PAM, bubble +1 to +10 (dsDNA)
DNA 1: B1 DNA 1 with G58C, G59C
DNA 2: B3 DNA 2 with A22G, A23G
B5: 80-bp target, AA PAM, bubble +1 to +10 (dsDNA)
DNA 1: B1 DNA 1 with G58A, G59A
DNA 2: B3 DNA 2 with A22T, A23T
B6: Cas7f, backbone subunit of the Csy complex (natural protein, Pseudomonas aeruginosa (strain PA14))
chain: MSKPILSTASVLAFERKLDPSDALMSAGAWAQRDASQEWPAVTVREKSVRGTISNRLKTKDRDPAKLDASIQSPNLQTVDVANLPSDADTLKVRFTLRVLGGAGTPSACNDAAYRDKLLQTVATYVNDQGFAELARRYAHNLANARFLWRNRVGAEAVEVRINHIRQGEVARAWRFDALAIGLRDFKADAELDALAELIASGLSGSGHVLLEVVAFARIGDGQEVFPSQELILDKGDKKGQKSKTLYSVRDAAAIHSQKIGNALRTIDTWYPDEDGLGPIAVEPYGSVTSQGKAYRQPKQKLDFYTLLDNWVLRDEAPAVEQQHYVIANLIRGGVFGEAEEK

Legend:
[1] = target: T1, Csy complex (type I-F, wild type);Cas1-2/3 complex (Pseudomonas aeruginosa PA14;Pseudomonas …, UniProt Q02ML9;Q02MM0;Q02MM1;Q02MM2;Q02ML7;Q02ML8 1-434;1-327;1-342;1-187;1-324;1-1076, |); assay: EMSA
T1 sequence (Q02ML7 whole entry, chain 5 of 2): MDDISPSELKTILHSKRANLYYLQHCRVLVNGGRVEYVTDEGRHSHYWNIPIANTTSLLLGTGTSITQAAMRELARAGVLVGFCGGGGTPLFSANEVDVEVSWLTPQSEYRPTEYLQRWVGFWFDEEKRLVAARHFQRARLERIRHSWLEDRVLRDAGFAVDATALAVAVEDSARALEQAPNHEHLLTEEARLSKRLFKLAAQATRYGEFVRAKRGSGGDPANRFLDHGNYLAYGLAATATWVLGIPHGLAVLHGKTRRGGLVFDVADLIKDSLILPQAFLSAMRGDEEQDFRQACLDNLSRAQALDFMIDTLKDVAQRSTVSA
T1 sequence (Q02ML8 whole entry, chain 6 of 2): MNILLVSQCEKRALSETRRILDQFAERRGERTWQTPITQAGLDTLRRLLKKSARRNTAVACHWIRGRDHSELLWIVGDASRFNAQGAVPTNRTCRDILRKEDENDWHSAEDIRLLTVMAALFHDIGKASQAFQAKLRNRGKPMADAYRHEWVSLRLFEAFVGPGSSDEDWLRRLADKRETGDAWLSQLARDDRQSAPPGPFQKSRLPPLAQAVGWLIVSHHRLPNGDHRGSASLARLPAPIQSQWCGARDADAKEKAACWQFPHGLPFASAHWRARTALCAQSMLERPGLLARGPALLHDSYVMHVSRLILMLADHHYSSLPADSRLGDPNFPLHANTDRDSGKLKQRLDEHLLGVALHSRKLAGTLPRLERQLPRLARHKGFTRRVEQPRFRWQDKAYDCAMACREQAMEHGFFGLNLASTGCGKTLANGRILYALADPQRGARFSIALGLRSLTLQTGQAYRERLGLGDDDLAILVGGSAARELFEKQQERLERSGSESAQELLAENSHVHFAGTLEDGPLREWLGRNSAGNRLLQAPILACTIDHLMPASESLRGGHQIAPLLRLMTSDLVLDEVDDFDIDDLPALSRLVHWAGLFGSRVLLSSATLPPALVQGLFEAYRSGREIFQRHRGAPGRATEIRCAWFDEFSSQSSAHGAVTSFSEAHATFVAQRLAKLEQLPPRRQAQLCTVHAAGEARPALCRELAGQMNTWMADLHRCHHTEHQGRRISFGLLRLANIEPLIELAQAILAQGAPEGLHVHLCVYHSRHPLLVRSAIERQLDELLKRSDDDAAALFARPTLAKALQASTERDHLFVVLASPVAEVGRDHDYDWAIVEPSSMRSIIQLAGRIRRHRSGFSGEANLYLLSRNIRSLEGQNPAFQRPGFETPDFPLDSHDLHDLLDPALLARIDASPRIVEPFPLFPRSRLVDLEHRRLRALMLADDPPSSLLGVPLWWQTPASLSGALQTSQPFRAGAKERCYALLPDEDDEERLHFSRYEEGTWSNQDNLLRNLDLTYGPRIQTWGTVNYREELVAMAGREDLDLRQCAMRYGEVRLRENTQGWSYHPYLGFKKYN

[2] = target: T2, Csy complex Cas8f N250A (Pseudomonas aeruginosa PA14, UniProt Q02ML9;Q02MM0;Q02MM1;Q02MM2 1-434;1-327;1-342;1-187, N250A); assay: EMSA
T2 sequence 1: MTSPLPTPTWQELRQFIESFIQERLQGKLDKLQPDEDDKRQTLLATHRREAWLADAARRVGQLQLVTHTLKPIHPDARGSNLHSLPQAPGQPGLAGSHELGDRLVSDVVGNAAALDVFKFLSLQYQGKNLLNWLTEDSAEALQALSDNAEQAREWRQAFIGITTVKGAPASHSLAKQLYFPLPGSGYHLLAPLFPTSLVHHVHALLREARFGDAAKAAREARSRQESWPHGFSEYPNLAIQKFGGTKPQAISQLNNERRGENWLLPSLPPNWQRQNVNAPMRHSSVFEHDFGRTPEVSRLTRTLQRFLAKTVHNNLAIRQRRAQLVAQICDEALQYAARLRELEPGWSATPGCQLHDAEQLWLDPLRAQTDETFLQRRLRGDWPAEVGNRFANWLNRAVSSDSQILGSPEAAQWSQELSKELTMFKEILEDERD
T2 sequence 2: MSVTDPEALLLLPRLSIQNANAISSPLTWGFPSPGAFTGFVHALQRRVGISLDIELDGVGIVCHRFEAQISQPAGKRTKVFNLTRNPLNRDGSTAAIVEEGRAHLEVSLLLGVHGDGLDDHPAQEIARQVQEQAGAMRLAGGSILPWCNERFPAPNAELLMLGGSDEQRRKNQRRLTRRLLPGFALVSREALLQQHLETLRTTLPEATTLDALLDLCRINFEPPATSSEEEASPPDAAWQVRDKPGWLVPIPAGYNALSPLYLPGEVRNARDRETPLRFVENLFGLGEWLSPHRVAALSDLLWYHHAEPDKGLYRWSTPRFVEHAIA
T2 sequence 3: B6 chain
T2 sequence 4: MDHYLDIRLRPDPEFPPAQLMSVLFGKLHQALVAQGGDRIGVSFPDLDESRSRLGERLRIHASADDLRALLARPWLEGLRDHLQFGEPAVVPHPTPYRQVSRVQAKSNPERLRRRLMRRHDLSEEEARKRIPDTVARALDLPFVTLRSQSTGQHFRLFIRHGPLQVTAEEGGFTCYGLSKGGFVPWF

[3] = target: T3, Csy complex (type I-F, wild type) (Pseudomonas aeruginosa PA14, UniProt Q02ML9;Q02MM0;Q02MM1;Q02MM2 1-434;1-327;1-342;1-187); assay: cryo-EM
T3 sequence 1: T2 sequence 1 with A250N
T3 sequence 2: T2 sequence 2
T3 sequence 3: B6 chain
T3 sequence 4: T2 sequence 4

[4] = target: T4, Csy complex Cas8f RBC mutant (Pseudomonas aeruginosa PA14, UniProt Q02ML9;Q02MM0;Q02MM1;Q02MM2 1-434;1-327;1-342;1-187, R282E;H283D;R299E;R302E); assay: EMSA
T4 sequence 1: T2 sequence 1 with A250N, R282E, H283D, R299E, R302E
T4 sequence 2: T2 sequence 2
T4 sequence 3: B6 chain
T4 sequence 4: T2 sequence 4

[5] = target: T1, Csy complex (type I-F, wild …); assay: EMSA; remark: listed apart in the source
[6] = target: T3, Csy complex (type I-F, wild type); assay: EMSA
[7] = target: the molecule itself; assay: cryo-EM structure

Binder	binding result [5]	binding result [6]	other results
B1			binding result [1]: binds; binding signal [2]: > 1000 fold decrease in affinity vs WT; binding result [3]: binds
B2			binding result [4]: binds
B3	binds	binds	
B4	binds	binds	
B5	binds	binds	
B6			binding result [7]: binds
